# In FireProtDB (doi:10.1021/bi027116n):
# “And” between values parts separate entries of the source, which are not always exact repeats. Identical values can stand only once.
# B1: 2Fe-2S ferredoxin-5 wild type, P59799 (protein)
# chain: MPKVIVANINAEFEGIENETIMQILYRNGIEIDSACGGHGQCTSCKVLIISGSENLYPAEFEEKDTLEENGMDPETERLSCQAKLNGKGDVVIYLP
# Details: Aquifex aeolicus (strain VF5), reversible: no, whole UniProt chain shown; for denaturant midpoint (higher = more stable): 20 °C, GdnHCl
protein,measurement,setting,value
B1,denaturant midpoint (higher = more stable),"pH 4, Absorbance, citric acid-NaH2PO4",3.2 M
same,denaturant midpoint (higher = more stable),"pH 4, Emission, citric acid-NaH2PO4",3.2 M
same,denaturant midpoint (higher = more stable),"pH 5, Absorbance, Unknown",6.7 M
same,denaturant midpoint (higher = more stable),"pH 5, CD, Unknown",6.7 M
same,denaturant midpoint (higher = more stable),"pH 5, Emission, Unknown",6.9 M
same,denaturant midpoint (higher = more stable),"pH 10, Absorbance, Glycine-OH",7.5 M and 7.1 M
same,denaturant midpoint (higher = more stable),"pH 10, CD, Glycine-OH",7 M
same,denaturant midpoint (higher = more stable),"pH 10, CD, glycine-OH",6.6 M and 6.3 M and 6.1 M
same,denaturant midpoint (higher = more stable),"pH 10, Emission, Glycine-OH",7 M
same,denaturant midpoint (higher = more stable),"pH 10, Emission, glycine-OH",6.5 M and 6.1 M
same,Tm,"pH 10, Thermal, Absorbance, Glycine-OH",116 °C
same,denaturant midpoint (higher = more stable),"pH 11, CD, NaHCO3-NaOH",6.2 M
same,denaturant midpoint (higher = more stable),"pH 11, Emission, NaHCO3-NaOH",6.2 M
